Experiment: yeast display, Sf9 membrane polyspecificity reagent, FACS + sequencing; frameworks hold sequencing errors
In short: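 Sorting gates, low and high (top ~1%), were placed on anti-HA fluorescence to track expression and on streptavidin fluorescence to track reagent binding. A clone's polyreactivity label is taken from the gate it came out of. The reagent was 10% biotinylated, detergent-solubilized Sf9 membrane, applied for 1 hour at 4 °C to galactose-induced yeast display cells.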

QVQLVESGGGLVQAGGSLRLSCAASGSTYYGNAMGWYRQAPGKERQLVAAIRSRGGSTYYADSVKGRFTISRDNAKNTVYLQMNSLKPEDPAVYYCDAKQPSWKYAYYYWGQGTQVTVSS
polyreactivity (PSR sort gate): high polyreactivity

QVQLVESGGGLVQAGGSLRLSCAASGSTYYNAMGWYRQAPGKERELVAAIRFRYGSTYYADSVKGRFTISRDNAKNSVYLQMNSLKPEDTAVYYCADDNKRSWRYAYNYWGHGTQVTVSS
polyreactivity (PSR sort gate): high polyreactivity

QVQLVESGGGLVQAGGSLRLSCAASGSTYYTYAMGWYRQAPGKERELVAAIRGRGGRTYYADSVKGRFTISRDNAKNTVYLQMNSLKPEDTAVYYCNADGYAYYRATTRFDYWGQGTQVTVSS
polyreactivity (PSR sort gate): high polyreactivity

QVQLVESGGGLVQAGGSLRLSCAASGSYLRYYAMGWYRPARGKERELVAAISRSGTNTYYAHSVKGRFTISRDNAKNTVYLQMNSLKPEDTAVYYCAARGYYRDYDSWGQGTQVTVSS
polyreactivity (PSR sort gate): high polyreactivity

QVQLVESGGGLVQAGGSLRLSCAASGTFFIYAMGWYRPAPGKERELVDTISTGGSTNYADSVKGRFTISRDNAKNTVYLQMNSLKPEDTAVYSCAAEWLYPHDGGYPRPMDYWGQGTQVTVSS
polyreactivity (PSR sort gate): low polyreactivity

QVQLVESGGGLVQAGGSLRLSCAASGTFKWYAMGWYSQAPGKERELDAVISSSGGTTYYADSVKGRFTISRDNAKNTVYLQMNSLKPEDTAVYYCNKRFRSWTTGSPYDYWGQGTQVTVSS
polyreactivity (PSR sort gate): high polyreactivity

QVQLVESGGGLVQAGGSLRLSCAASGTFQSYAMGWNRQAPGKERELVAAISRSGASTYYADSVKGRFTISRDNAKNTVYLQMISLKPEDTAVYYFAARKTSKYYYWGQGTQVTVSS
polyreactivity (PSR sort gate): high polyreactivity

QVQLVESGGGLVQAGGSLRLSCAASGTFWLYTMGWYRQAPGKERELVAAISLTAGNTYYADSVKGRFTISRDNAKYTVYLQMNSLKPEDTAVYYCAADHYYYTRYEYWGQGTQVTVSS
polyreactivity (PSR sort gate): low polyreactivity

QVQLVESGGGLVQAGGSLRLSCAASGTFYGNTMGWYRQAPGKERELVAVISIDVSTNYADSVKGRFTISRDNAKNTVYLQMNSLKPEDTAVYYCAADYLRQFRDYDYWGQGTQVTVSS
polyreactivity (PSR sort gate): low polyreactivity

QVQLVESGGGLVQAGGSLRLSCAASGTFYYAMGWYRQAPGKEREFVAAISWRGGTTYYADSVKGRFTMSRDNAKNTVYLQMNSLKPEDTAVYYCATAPYVTSRRYGPYEYWGQGTQVTVSS
polyreactivity (PSR sort gate): low polyreactivity

QVQLVESGGGLVQAGGSLRLSCAASGTIFGPNAMGWYRKAPGTERELVAAITLSGGSTYYSDSVKGRFTISRDNAKNTVYLPMNSLKPEDTAVYYCAAGPDYGWRRYDYWGQGTQVTVSW
polyreactivity (PSR sort gate): low polyreactivity

QVQLVESGGGLVQAGGSLRLSCAASGTIFLWYAMGWYIQAPGKERELVASITRGGNTYYADSVKGRFTISRDNAKNTVYLQMISLKPEDTAVYYCAAVSRFWRVPYTYDYWGQGTHVTVSS
polyreactivity (PSR sort gate): low polyreactivity

QVQLVESGGGLVQAGGSLRLSCAASGTIFTVYALGWYRQPPGKERELVAGISSGAGTTYADSVKGRFTISRDNAKNTVYLQMNSMKPEDTAVYYCAAYTWDTDHYWYGYVPYDYWGQGTQVTVSS
polyreactivity (PSR sort gate): low polyreactivity

QVQLVESGGGLVQAGGSLRLSCAASGTIFWIYAMGWYRQAPGKERELVATITRRGGSTYYADSVKGRFTISRDNATNTVYLQMNSLKPEDTAVYFCATEPGYTYLTSYKYDYWGQGTQVTVSS
polyreactivity (PSR sort gate): low polyreactivity

QVQLVESGGGLVQAGGSLRLSCAASGTIFYGNAMGWYRQAPGKEREYVAAITYSGGSTYYADSVKGRFSISRDNAKNTVYLQMNSLKPEDTAVYYCAKAYYPKGRYGFDYWGQGTQVTVSS
polyreactivity (PSR sort gate): high polyreactivity

QVQLVESGGGLVQAGGSLRLSCAASGTITSYAMGWYRQAPGKERELVASIRYRGGSTYYADSVKGRFTISRDNAKNTVYLQMNSLKPEDTAVYYCAADNFAPEFYYWGQGTQVTVSS
polyreactivity (PSR sort gate): low polyreactivity

QVQLVESGGGLVQAGGSLRLSCAASGTLATYAMGWYRQAPGKERELVAAIRYSDGRTYYADSVKGRFTISRDNAKNTFYLQMNSLKPEDTAVYYCAASFRGRGKKLDYWGQGTQVTVSS
polyreactivity (PSR sort gate): low polyreactivity

QVQLVESGGGLVQAGGSLRLSCAASGTNQGVNAMGWYRQAPGKEREFDAAITGRGGNTYYADSVKGRYTISRDNAKNTVYLQLNSLKPDDTAVYYCAARVKDTRYQSMLDYFYWGQGTEVTVSS
polyreactivity (PSR sort gate): high polyreactivity

QVQLVESGGGLVQAGGSLRLSCAASGTNVMGWYRQAPGKERELVAAISGSGGSTYYADSVKGRFTISRDNAKNSVYFQMNSLKPEDSAVYYCAADSIQYTARPYDYWGQGTQVTVSS
polyreactivity (PSR sort gate): low polyreactivity

QVQLVESGGGLVQAGGSLRLSCAASGTTFDSNGRGWYREAPGKERELVAAIRSGDSTYYADSVKGRCTISRDNAKNTVYLQMISLKPEDTAVYYCNKDEATFLSKDDYWGQGTQVTVSS
polyreactivity (PSR sort gate): low polyreactivity

QVQLVESGGGLVQAGGSLRLSCAASGTTFDYYAMGWYRQAPGKERELVAVISSSGGSTYYADSVKGRFTISRDNAKNTVYLQMNSLKPEDTAVYYCAALYRNYGSSYAYYYWGQGTQVTVSS
polyreactivity (PSR sort gate): low polyreactivity

QVQLVESGGGLVQAGGSLRLSCAASGTTFSRYAMGWYRQAPGKEREFVAAISRRAGGTYYADSVKGRFTISRDNAKNTVYLQMNSLKPEDTAVYYCAKVLPRDYIGRATYDYWGQGTQVTVSS
polyreactivity (PSR sort gate): high polyreactivity

QVQLVESGGGLVQAGGSLRLSCAASGTTFSVNAMGWYRQAPGKERELVAAIDYSGGSTYYADSVKGRFTISRDNAKNTVYLQMNSLKPEDTAVYYCNADAYGTPEFTSYAVRYDYWGQGTQVTVSS
polyreactivity (PSR sort gate): low polyreactivity

QVQLVESGGGLVQAGGSLRLSCAASGTTFSYNAIVWYRQAPGKERELVAAISGSGGTTYYADSVKGRFTISRDNAKNTVYLEMNSLKPEDTAVYYCDARPFRSWRYDYWGQGTQVTVSS
polyreactivity (PSR sort gate): low polyreactivity

QVQLVESGGGLVQAGGSLRLSCAASGTTFTFNAMGWSRQAPGKERELVAAMSRSGGRTYYADSVKGRFTISRDNAKNTVYLQMNSLNPEDTAVYYCANDFVEQGRYNVGYWGQGTQVTGSS
polyreactivity (PSR sort gate): high polyreactivity

QVQLVESGGGLVQAGGSLRLSCAASGTTFVHYAMGWYRQAPGKERELVAAISSSGDSTYYADSVKGRFTISRDKAKNTVYLQMNSLKPEDTAVYYCAVRSRTPRAYYYWGQGTQVTVSS
polyreactivity (PSR sort gate): low polyreactivity

QVQLVESGGGLVQAGGSLRLSCAASGTTFVWYAMGWYRQAPGKERELVAAISLSGGSTYYADSVKGRFTISRDNAKKTVYLQMNSLKPEDTAVYYCAAETYAYLFHTYDYWGQGSQVTVSS
polyreactivity (PSR sort gate): low polyreactivity

QVQLVESGGGLVQAGGSLRLSCAASGTTFYNYAMGWYRQAPGKERELVAAITSSGGSTYYADSVKGRFTISRDNAKNTVYLQMNSLKPEDTAVYYCNAVDGYGLVHSISTYEMDYWGQGTQVTVSS
polyreactivity (PSR sort gate): low polyreactivity

QVQLVESGGGLVQAGGSLRLSCAASGTTYSINAMGWYRQATGKERELVAAISSGGSTYYADSVKGRFTISRDNAKYTVYLQMNSLIPEDTAVYYCAVDPSWTYWSTYRYDYWGQGTQVTVSS
polyreactivity (PSR sort gate): low polyreactivity

QVQLVESGGGLVQAGGSLRLSCAASGVIFYVYAMGWYRQAPGKERELVAAISADGGITYYADSVKGRFTISRDNAKNTVYLQMNSLKPEDTAVYYCAADYYGSVQGGIQYGYYYWGQGTQVTVSS
polyreactivity (PSR sort gate): low polyreactivity

QVQLVESGGGLVQAGGSLRLSCAASGVYAMGWYRQAPGKERELVAAISRRGGSTYYADSVKGRFTISRDNAKNTVYLQMNSLKPEDTAVYYCAAKRAGAEYDYWGQGTQVTVSS
polyreactivity (PSR sort gate): high polyreactivity

QVQLVESGGGLVQAGGSLRLSCAASGYIFAGNAMGWYRQAPGKERELVAVITRGGRTYYADSVKGRFTISRDNAKNTVYLQMNSLKPEDTAVYYCAKLVSLAGRIYGYWGQGTQVTVSS
polyreactivity (PSR sort gate): high polyreactivity

QVQLVESGGGLVQAGGSLRLSCAASGYIFAVYAMGWYIQAPGKEREFVAVITWRGGSTYYADSVKGRFTISRDNAKNTVYLQMNSLKPEDTAVYYCADDVYAQYDYWGQGTQVTVSS
polyreactivity (PSR sort gate): high polyreactivity

QVQLVESGGGLVQAGGSLRLSCAASGYIFAWNAMGWYRQAPGKERQLVAAIRSSSGRTYYADSVKGRFTISRDNAKNTVYLLMNSLKPEDTAVYYCAASYAGGAVYYKYYSWGQGTQVTVSS
polyreactivity (PSR sort gate): high polyreactivity

QVQLVESGGGLVQAGGSLRLSCAASGYIFDGNAMGWYRQAPGKERELVASISSGTSTYYADSVKGRFTISRDNAKNTVYLQMNSLKPEDTAVYYCAGDYKWSGFGYWGQGTQVTVSS
polyreactivity (PSR sort gate): low polyreactivity

QVQLVESGGGLVQAGGSLRLSCAASGYIFDRYAMGWYRQAPGKERELVAAISGRGGSTYYADSVKGRFTISRDNAKNTVYLQKNSLKPEDTAFYYCARDVYVRNGQRARYDSWGQGTQVTVSS
polyreactivity (PSR sort gate): high polyreactivity

QVQLVESGGGLVQAGGSLRLSCAASGYIFDVYAMGWYRQAPGKERELVAAISSSGGRTYYADSVKGRFTISRDTAKNTVYLQMNSLKPEDTAVYYCAAKTHSRTKVYTADYWGQGTQVTVSS
polyreactivity (PSR sort gate): high polyreactivity

QVQLVESGGGLVQAGGSLRLSCAASGYIFERTAMGWYRQAHGKERELVAAITDDGDDTYYADSVKGRFTISRDNAKNTVYLQMNSLKPEDTAVFYCAKDLYYGDYYYWGQGTQVTVSS
polyreactivity (PSR sort gate): low polyreactivity

QVQLVESGGGLVQAGGSLRLSCAASGYIFFGNAMGWYRQAPGKERDLVAAIRWRGTSTYYADSVKGRFTISRDNAKNTVTFLMNSLKPEDSAVYYCAADVVRSNFYGTFLYDYEYWGKGTQVTVSS
polyreactivity (PSR sort gate): low polyreactivity

QVQLVESGGGLVQAGGSLRLSCAASGYIFGHYAMGWSRQAPGKERELVAGITWRGGSTYYADSVKGRFTISRDNAKNTVYLQLNSLKPEDTAVYYCNAQYTQRWPYGLYYEMDYWGQGTQVSVSS
polyreactivity (PSR sort gate): low polyreactivity

QVQLVESGGGLVQAGGSLRLSCAASGYIFGHYTMGWYRPAPRKERELVAGITSGTRTYYADSVKGRFTISRDNAKNTVYLQMNSRKPDDTAVYYCAKRGPVRTQYTYYYWGQGTQVTVSS
polyreactivity (PSR sort gate): high polyreactivity

QVQLVESGGGLVQAGGSLRLSCAASGYIFGIYAMGWYRQAPGKERELVAAISTSGGSKYYADSVKGRFTISRDTAKNTVYLQMNSLKPEDTAVYYCAASRPSPRPRYGYWGQGTQVTVSS
polyreactivity (PSR sort gate): high polyreactivity

QVQLVESGGGLVQAGGSLRLSCAASGYIFGIYAMGWYRQAPGKERELVARINWSGGRTYYADSVKGRFTISRDNAKNTVYLQMNSLKTEDTAVYYCAARSSYRKMDYWGQGTQVTVSS
polyreactivity (PSR sort gate): high polyreactivity
